From article PMC4595432

Molecular target: DnaA fused to the N-terminal domain of the phage 434 repressor (pcI434-dnaA) (E. coli K12) (UniProt P03004)
Assay: two-hybrid; bacterial two-hybrid system in E. coli R721 (434-P22 chimeric operator upstream of lacZ); fusions to the N-terminal domains of the 434 and P22 repressors; β-galactosidase in Miller units, cultures at A600 0.5 in LB with 0.1 mM IPTG; an interaction lowers the activity and is scored positive when the ratio to R721 is below 0.5

“HtpG fused to the N-terminal domain of the phage P22 repressor (pcIP22-htpG) (from UniProt P0A6Z3 1-624) (natural protein)” showed a ratio β-galactosidase activity tested strain/R721 of 0.19 and a β-galactosidase activity of 1070 Miller units.
